Measurements published in PMC3857245.

Biological target: 3xFLAG-tagged rat KCNQ2 (rat) (UniProt O88943)
Experiment: co-IP; KCNQ2-CaM complex immunoprecipitated in calcium (–) condition, the resin then exposed to 500 µM Ca2+; time course of CaM left on KCNQ2

Sequence of UniProt O88943 (O88943 whole entry): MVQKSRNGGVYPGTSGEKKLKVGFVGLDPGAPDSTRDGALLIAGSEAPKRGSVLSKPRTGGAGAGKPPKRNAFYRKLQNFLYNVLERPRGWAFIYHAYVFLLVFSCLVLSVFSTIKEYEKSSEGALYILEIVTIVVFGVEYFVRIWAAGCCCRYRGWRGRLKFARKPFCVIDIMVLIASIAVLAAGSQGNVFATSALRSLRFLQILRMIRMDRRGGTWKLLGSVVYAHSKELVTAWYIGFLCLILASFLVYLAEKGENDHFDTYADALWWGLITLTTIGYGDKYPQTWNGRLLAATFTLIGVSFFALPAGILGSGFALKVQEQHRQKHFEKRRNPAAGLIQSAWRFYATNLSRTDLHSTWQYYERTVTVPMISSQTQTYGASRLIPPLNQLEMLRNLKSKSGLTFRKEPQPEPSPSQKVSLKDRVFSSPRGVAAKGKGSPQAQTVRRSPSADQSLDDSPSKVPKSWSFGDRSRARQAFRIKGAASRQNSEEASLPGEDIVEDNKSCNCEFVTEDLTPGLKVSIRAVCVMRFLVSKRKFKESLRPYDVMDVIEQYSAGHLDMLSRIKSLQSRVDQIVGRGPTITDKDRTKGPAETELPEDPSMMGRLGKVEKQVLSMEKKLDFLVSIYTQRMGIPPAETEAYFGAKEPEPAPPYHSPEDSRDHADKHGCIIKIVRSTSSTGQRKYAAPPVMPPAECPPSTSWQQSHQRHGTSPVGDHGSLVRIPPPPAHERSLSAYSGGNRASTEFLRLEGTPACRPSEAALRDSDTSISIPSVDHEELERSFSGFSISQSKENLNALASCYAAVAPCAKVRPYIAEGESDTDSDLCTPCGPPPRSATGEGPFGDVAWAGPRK

V5-epitope tagged calmodulin (from UniProt P0DP23 1-149) (natural protein)
time constant of calcium-induced dissociation: 20.7 s
